Biological target: IL-2 receptor on the surface of human lymphocytes (T cells, NK cells, Treg cells from PBMC) (human)
Assay: cell-based or functional assay

CD25-pSTAT5 EC50 (CD8+ CD25- T cells): 0.47 nM
EC50 of pSTAT5, CD4+CD25- T cells: 0.102 nM
EC50 of pSTAT5, CD8+ T cells: 1.69 nM
EC50 of pSTAT5, NK cells: 24.2 pM
EC50 of pSTAT5, Treg cells: 0.388 pM
Substance: human wild-type IL-2 (rhIL-2, R&D systems, Catalog No. 202-IL) (from UniProt P60568 21-153) (ligand)

Reference: patent US20230145766A1
